Experimental data from patent publication US20190359687A1 (Bayer, published 2019).
No end group written: not given here. *: point of attachment. Biotin = O=C1N[C@H]2[C@H](CS[C@H]2CCCCC(=O)*)N1

Legend:
[1] = target: T1, human glycophorin A in the red blood cell membrane (human, UniProt P02724 20-150); test: SPR, human RBC membranes, Fab
T1 construct: whole, on cells; used for intact RBC, isolated RBC membranes and transfected cells; the assay field tells which; also called GPA; hGPA
T1 sequence (looked up): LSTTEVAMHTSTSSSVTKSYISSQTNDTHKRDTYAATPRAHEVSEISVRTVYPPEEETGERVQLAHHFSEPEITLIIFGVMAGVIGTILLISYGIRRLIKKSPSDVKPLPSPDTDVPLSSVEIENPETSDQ
Method: Kinetic analysis of the antibody binding to human red blood cell membranes was also performed using surface plasmon resonance (SPR) using a Biacore instrument. In this assay membranes prepared from human red blood cells were attached to a L1 sensor matrix and antibodies were flowed over the RBC membranes.

[2] = target: T2, human glycophorin A on human red blood cells or red blood cell membranes (human, UniProt P02724 20-150); test: Fab on intact human RBC, unbound Fab by ELISA; 60 min after 200-fold dilution
T2 construct: whole, on cells; also called hRBC; human RBC membranes
T2 sequence (looked up): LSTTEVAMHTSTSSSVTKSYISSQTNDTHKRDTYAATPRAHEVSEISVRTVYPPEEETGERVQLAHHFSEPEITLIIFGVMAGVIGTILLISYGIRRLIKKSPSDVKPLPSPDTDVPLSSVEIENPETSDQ

[3] = target: T3, Cynomolgus monkey glycophorin A on Cynomolgus monkey red blood cells or red blood cell membranes (Cynomolgus monkey); test: Fab on intact cyno RBC, unbound Fab by ELISA; 5 min after 200-fold dilution
T3 construct: whole, on cells; also called Cyno RBC; Cynomolgus monkey RBC membranes
Method: (§1) The binding of affinity matured Fab antibodies to intact Cynomolgus monkey RBC was measured. Cynomolgus monkey RBC were isolated from fresh anti-coagulated blood by centrifugation through a ficol gradient and washing in PBS buffer. RBC diluted to 1/10th of normal hematocrit were incubated with the Fab at a final concentration of 7 ug/ml for 1 hour at room temperature on a rotating shaker after which a sample was taken and the RBC were pelleted by centrifugation and the supernatant was collected. The remaining RBC suspension was diluted 200-fold in PBS buffer and incubated for a total of 2 hours at room temperature on a rotating shaker and samples were removed at 0, 5 min, 20 min, 1 h and 2 h and the RBC pelleted and the supernatant collected. […] The amount of Fab in the supernatants was then measured using an ELISA assay and the results used to calculate the percentage of the input Fab that was bound to the RBC.

[4] = target: T2, human glycophorin A on human red blood …; test: Fab 7 ug/ml on intact human RBC, unbound Fab by ELISA; pre-dilution
Method: (§2) The binding of affinity matured Fab antibodies to intact human RBC was also measured. Human RBC were isolated from fresh anti-coagulated normal human blood by centrifugation through a ficol gradient and washing in PBS buffer. RBC diluted to 1/10th of normal hematocrit were incubated with purified Fab antibodies at a final concentration of 7 ug/ml for 1 hour at room temperature on a rotating shaker after which a sample was taken and the RBC were pelleted by centrifugation and the supernatant was collected. The remaining RBC suspension was diluted 200-fold in PBS buffer and incubated for a total of 2 hours at room temperature on a rotating shaker and samples were removed at 0, 5 min, 20 min, 1 h and 2 h and the RBC pelleted and the supernatant collected. The amount of Fab in the supernatants was then measured using an ELISA assay and the results used to calculate the percentage of the input Fab that was bound to the RBC. […] The percentage that remains bound after 200-fold dilution of the RBC suspension is an indication of the overall strength of the binding to human RBC.

[5] = target: T4, GP12 peptide of the human GPA ectodomain (human, not fully specified (N-terminus)); test: ELISA, Fab 0.5 ug/ml on biotin-peptide on streptavidin plate
T4 peptide: YPPEEETG
From the text: (§3) These peptides were attached to the surface of a streptavidin coated plate via a biotin moiety that was present at the N-terminus of each peptide.

[6] = target: T5, GP9 peptide of the human GPA ectodomain (human, not fully specified (N-terminus)); test: as above
T5 peptide: RTVYPPEE
From the text: as §3

[7] = target: T6, GP16 peptide of the human GPA ectodomain (human, not fully specified (N-terminus)); test: as above
T6 peptide: EETGERVQ
From the text: as §3

[8] = target: T7, GP13 peptide of the human GPA ectodomain (human, not fully specified (N-terminus)); test: as above
T7 peptide: PPEEETGE
From the text: as §3

[9] = target: T8, GP5 peptide of the human GPA ectodomain (human, N-terminal biotin); test: as above
T8 construct: Residues 42 to 61 of the human GPA extracellular domain
From the text: as §3

[10] = target: T9, GP11 peptide of the human GPA ectodomain (human, not fully specified (N-terminus)); test: as above
T9 peptide: VYPPEEET
From the text: as §3

[11] = target: T10, GP7 peptide of the human GPA ectodomain (human, not fully specified (N-terminus)); test: as above
T10 peptide: SVRTVYPP
From the text: as §3

[12] = target: T11, GP15 peptide of the human GPA ectodomain (human, not fully specified (N-terminus)); test: as above
T11 peptide: EEETGERV
From the text: as §3

[13] = target: T12, GP14 peptide of the human GPA ectodomain (human, not fully specified (N-terminus)); test: as above
T12 peptide: PEEETGER
From the text: as §3

[14] = target: T13, GP10 peptide of the human GPA ectodomain (human, not fully specified (N-terminus)); test: as above
T13 peptide: TVYPPEEE
From the text: as §3

[15] = target: T14, GP8 peptide of the human GPA ectodomain (human, not fully specified (N-terminus)); test: as above
T14 peptide: VRTVYPPE
From the text: as §3

[16] = target: T2, human glycophorin A on human red blood …; test: Fab on intact human RBC, unbound Fab by ELISA; 5 min after 200-fold dilution
[17] = target: T3, Cynomolgus monkey glycophorin A on …; test: Fab 7 ug/ml on intact cyno RBC, unbound Fab by ELISA; pre-dilution
Method: as §1

[18] = target: T2, human glycophorin A on human red blood …; test: Fab on intact human RBC, unbound Fab by ELISA; 120 min after 200-fold dilution
[19] = target: T2, human glycophorin A on human red blood …; test: Fab on intact human RBC, unbound Fab by ELISA; 20 min after 200-fold dilution
Method: as §2

[20] = target: T3, Cynomolgus monkey glycophorin A on …; test: Fab on intact cyno RBC, unbound Fab by ELISA; 60 min after 200-fold dilution
Method: as §1

[21] = target: T3, Cynomolgus monkey glycophorin A on …; test: Fab on intact cyno RBC, unbound Fab by ELISA; 0 min after 200-fold dilution
Method: as §1

[22] = target: T3, Cynomolgus monkey glycophorin A on …; test: Fab on intact cyno RBC, unbound Fab by ELISA; 20 min after 200-fold dilution
[23] = target: T4, GP12 peptide of the human GPA ectodomain; test: ELISA, Fab 0.05 ug/ml on biotin-peptide on streptavidin plate
From the text: as §3

[24] = target: T5, GP9 peptide of the human GPA ectodomain; test: as above
From the text: as §3

[25] = target: T6, GP16 peptide of the human GPA ectodomain; test: as above
From the text: as §3

[26] = target: T7, GP13 peptide of the human GPA ectodomain; test: as above
From the text: as §3

[27] = target: T8, GP5 peptide of the human GPA ectodomain; test: as above
From the text: as §3

[28] = target: T9, GP11 peptide of the human GPA ectodomain; test: as above
From the text: as §3

[29] = target: T10, GP7 peptide of the human GPA ectodomain; test: as above
From the text: as §3

[30] = target: T11, GP15 peptide of the human GPA ectodomain; test: as above
From the text: as §3

[31] = target: T12, GP14 peptide of the human GPA ectodomain; test: as above
From the text: as §3

[32] = target: T13, GP10 peptide of the human GPA ectodomain; test: as above
From the text: as §3

[33] = target: T14, GP8 peptide of the human GPA ectodomain; test: as above
From the text: as §3

[34] = target: T3, Cynomolgus monkey glycophorin A on …; test: Fab on intact cyno RBC, unbound Fab by ELISA; 120 min after 200-fold dilution
Method: as §1

[35] = target: T2, human glycophorin A on human red blood …; test: Fab on intact human RBC, unbound Fab by ELISA; 0 min after 200-fold dilution
Method: as §2

[36] = target: T15, GP13 peptide (human); test: peptide ELISA, Fab
T15 peptide: Biotin-PPEEETGE
From the text: as §3

[37] = target: T16, GP14 peptide (human); test: peptide ELISA, Fab
T16 peptide: Biotin-PEEETGER
From the text: as §3

[38] = target: T17, GP11 peptide (human); test: peptide ELISA, Fab
T17 peptide: Biotin-VYPPEEET
From the text: as §3

[39] = target: T18, GP12 peptide (human); test: peptide ELISA, Fab
T18 peptide: Biotin-YPPEEETG
From the text: as §3

[40] = target: T19, GP16 peptide (human); test: peptide ELISA, Fab
T19 peptide: Biotin-EETGERVQ
From the text: as §3

[41] = target: T20, GP15 peptide (human); test: peptide ELISA, Fab
T20 peptide: Biotin-EEETGERV
From the text: as §3

[42] = target: T21, GP7 peptide (human); test: peptide ELISA, Fab
T21 peptide: Biotin-SVRTVYPP
From the text: as §3

[43] = target: T22, GP10 peptide (human); test: peptide ELISA, Fab
T22 peptide: Biotin-TVYPPEEE
From the text: as §3

B1: TPP-5907 Fab (Fab, V domains shown)
VH: EVQLVQSGAEVKKPGASVKVSCKASGYTFTTYTIHWVRQAPGQGLEWMGYINPGSGYTRYNPKFKGRVTMTRDKSTSTAYMELRSLRSDDTAVYYCQTGTRDYWGQGTTVTVSS
VL: DIQLTQSPSFLSASVGDRVTITCRASSSVSYIYWFQQKPGKAPKLLIYATSTLQSGVPSRFSGSGSGTEYTLTISSLQPEDFATYYCHQRNSFPYTFGQGTKLEIKR
In the case of B1, the “fold improvement of affinity against the parental antibody” value [1] is reported as ~200 fold.

B2: TPP-7792, affinity matured 6C12 Fab (Fab, V domains shown)
VH: EVQLVQSGAEVKKPGASVKVSCKASGYTFTTYAIHWVRQAPGQGLEWMGYINPSSGYTRYNPKFKGRVTMTRDKSTSTAYMELRSLRSDDTAVYYCWTGTRDYWGQGTTVTVSS
VL: DIQLTQSPSFLSASVGDRVTITCRASSSVRYIYWFQQKPGKAPKLLIYATSFRQSGVPSRFSGSGSGTEYTLTISSLQPEDFATYYCHQRNSFPYTFGQGTKLEIK
notes: Tested as Fab with a 6xHIS tag
For B2, the “percentage of input antibody bound” value [2] was 97%, the “percentage of input antibody bound” value [3] was 94% and the “percentage of input antibody bound” value [4] was 98%. The “binding signal in ELISA (relative light units)” value [5] was 0 RLU, the “binding signal in ELISA (relative light units)” value [6] was 534 RLU and the “binding signal in ELISA (relative light units)” value [7] was 0 RLU. The “binding signal in ELISA (relative light units)” value [8] was 0 RLU, the “binding signal in ELISA (relative light units)” value [9] was 7230 RLU and the “binding signal in ELISA (relative light units)” value [10] was 2 RLU. The “binding signal in ELISA (relative light units)” value [11] was 1 RLU, the “binding signal in ELISA (relative light units)” value [12] was 0 RLU and the “binding signal in ELISA (relative light units)” value [13] was 0 RLU. For the same binder, the “binding signal in ELISA (relative light units)” value [14] was 71 RLU, the “binding signal in ELISA (relative light units)” value [15] was 5130 RLU and the “percentage of input antibody bound” value [16] was 97%. The “percentage of input antibody bound” value [17] was 92%, the “percentage of input antibody bound” value [18] was 96% and the “percentage of input antibody bound” value [19] was 96%. For the same binder, the “percentage of input antibody bound” value [20] was 92%, the “percentage of input antibody bound” value [21] was 96% and the “percentage of input antibody bound” value [22] was 93%. For the same binder, the “binding signal in ELISA (relative light units)” value [23] was -1 RLU, the “binding signal in ELISA (relative light units)” value [24] was 18 RLU and the “binding signal in ELISA (relative light units)” value [25] was -1 RLU. The “binding signal in ELISA (relative light units)” value [26] was -1 RLU, the “binding signal in ELISA (relative light units)” value [27] was 3500 RLU and the “binding signal in ELISA (relative light units)” value [28] was 0 RLU. The “binding signal in ELISA (relative light units)” value [29] was 0 RLU, the “binding signal in ELISA (relative light units)” value [30] was -1 RLU and the “binding signal in ELISA (relative light units)” value [31] was -1 RLU. For the same binder, the “binding signal in ELISA (relative light units)” value [32] was 14 RLU, the “binding signal in ELISA (relative light units)” value [33] was 291 RLU and the “percentage of input antibody bound” value [34] was 89%. The “percentage of input antibody bound” value [35] was 97%.

B3: TPP-7792 Fab (Fab, V domains shown)
VH: EVQLVQSGAEVKKPGASVKVSCKASGYTFTTYAIHWVRQAPGQGLEWMGYINPSSGYTRYNPKFKGRVTMTRDKSTSTAYMELRSLRSDDTAVYYCWTGTRDYWGQGTTVTVSS
VL: DIQLTQSPSFLSASVGDRVTITCRASSSVRYIYWFQQKPGKAPKLLIYATSFRQSGVPSRFSGSGSGTEYTLTISSLQPEDFATYYCHQRNSFPYTFGQGTKLEIK
notes: as m92
B3: no binding (tested: 0.5 ug/ml) [36]; no binding (tested: 0.5 ug/ml) [37]; no binding (tested: 0.5 ug/ml) [38]. B3: no binding (tested: 0.5 ug/ml) [39]; no binding (tested: 0.5 ug/ml) [40]; no binding (tested: 0.5 ug/ml) [41]. B3: no binding (tested: 0.5 ug/ml) [42]; no binding (tested: 0.5 ug/ml) [43].

B4: TPP-7790 Fab (Fab, V domains shown)
VH: EVQLVQSGAEVKKPGASVKVSCKASGYTFTTYAIHWVRQAPGQGLEWMGYINPSSGYTRYNPKFKHRVTMTRDKSTSTAYMELRSLRSDDTAVYYCWTGTRDYWGQGTTVTVSS
VL: DIQLTQSPSFLSASVGDRVTITCRASSSVRYIYWFQQKPGKAPKLLIYATSFLQSGVPSRFSGSGSGTEYTLTISSLQPEDFATYYCHQRNSFPYTFGQGTKLEIK
notes: as m92
B4: no binding (tested: 0.5 ug/ml) [36]; no binding (tested: 0.5 ug/ml) [37]; no binding (tested: 0.5 ug/ml) [38]. B4: no binding (tested: 0.5 ug/ml) [39]; no binding (tested: 0.5 ug/ml) [40]; no binding (tested: 0.5 ug/ml) [41]. B4: no binding (tested: 0.5 ug/ml) [42]; no binding (tested: 0.5 ug/ml) [43].
